Reference: PMC5719032, “Differentially evolved glucosyltransferases determine natural variation of rice flavone accumulation and UV-tolerance” (Nature Communications, 2017)

B1: OsUGT707A2 (Oryza sativa Japonica Group) (protein)
chain: MAPAMASSAATVVLIPFCVSGHLTPMLEVGKRMLRSRCCGDDDDGRPAMSLTVLLAQLPESHRAPEIDEIIRREAAGASEHSGFDVRFHCLPAEELPDFRGGEDFISRFMQQHASHAREAIAGLESRVAAVVLDWFCTTLLDVTRDLGLPGYVFFTSAASMLSLLLRLPALDKEVAVDFEEMGGAVDLPGLPPVPAALLPTPVMKKGCNYEWLVYHGSRFMEAAGIIVNTVAELEPAVLEAIADGRCVPGRRVPAIYTVGPVLSFKTPPEKPHECVRWLDAQPRASVVFLCFGSMGSFAPPQVLEIAAGLERSGHRFLWVLRGRPPAGSPYPTDADADELLPEGFLERTKGRGMVWPTWAPQKDILAHAAVGGFVTHGGWNSTLESLWHGVPMAPWPLYAEQHLNAFELVRDMGVAVEMEVDRKRGNLVEAAELERAVRCLMDEGSEEGRMAREKAAAAKAACRNAVDGGGSSIAALRKLTQEMAHMSSI
notes: full cDNA in pGEX-6p-1, N-terminal GST fusion, E. coli BL21(DE3), glutathione Sepharose purified
B2: OsUGT706D1 (Oryza sativa Japonica Group) (protein)
chain: MESKPSRNVVLYAAMGAGHLLPMVELAKLFLTRGLDVTIAVPATPGSGTTGSPTIAGIAASNPSITFHHLPPPPSCADPDPNPLLLMLDVLRRSVPSLASLLRSIPSVAALVLDIFCAEAVDAAAALHVPAYIYFTSAAGAFAASLGLMHHYSTTTTNLRDMGKALLRFPGVPPIPASDMPSLVQDREGRFYKARVKLYARAMEASGVLLNTYEWLEARAMGALREGACSPDRPTPPVYCVGPLVASGEEEGGGVRHACLAWLDAQPARSVVFLCFGSMGSFSAAQLKEIARGLESSGHRFLWVVRSPRQDPANLLEHLPEPDLAALLPEGFLERTADKGMVVKSWAPQAKVLRHAATAAFVTHCGWNSTLEGITAGVPLLCWPLYAEQRMNKVFIVEEMKVGVVIDGYDEEMVSAEEVEAKVRLVMESEEGGKLLERLAVARAKAVEALAEEGPSRVAFDEFIDRLVTSE
notes: as for B1

How the values were obtained:
purified protein [1] = substrate: O=c1c(O)c(-c2ccc(O)cc2)oc2cc(O)cc(O)c12; experiment: purified protein; details: 1.5 mM UDP-glucose, 5 mM MgCl2, Tris-HCl pH 7.4, 37 °C, 3-O-glucosylation
purified protein [2] = substrate: O=c1cc(-c2ccc(O)cc2)oc2cc(O)cc(O)c12; experiment: purified protein; details: 1.5 mM UDP-glucose, 5 mM MgCl2, Tris-HCl pH 7.4, 37 °C
[3] = substrate: O=c1c(O)c(-c2ccc(O)c(O)c2)oc2cc(O)cc(O)c12; experiment: purified protein, by the assay type; set-up: HPLC glucoside product formation by recombinant GST-UGT, 1.5 mM UDP-glucose, Michaelis-Menten fit; details: pH 8.0; 20.0 °C
Protocol: (§1) To determine the kinetic constants of UGTs for flavonoid acceptors, their activities were determined using 0 to 400 μM different flavonoids at a fixed concentration of 1.5 mM UDP-glucose. Flavonoids were purchased from BioBioPha Co., Ltd (www.biobiopha.com/) and UDP-sugars were purchased from Sigma-Aldrich, USA. All Kinetic parameters were calculated using Michaelis-Menten model (Sigma Plot, version 12.5). All the reactions were run in duplicate, and each experiment was repeated twice. The full cDNA of UGTs from Nipponbare (O. sativa L. spp. japonica) were cloned into the pGEX-6p-1 expression vector (Novagen) with a glutathione S-transferase tag. Recombinant proteins were expressed in BL21 (DE3) cells (Novagen) following induction by addition of 0.1 mM isopropy-β-D-thiogalactoside (IPTG) and growing continually for 16 h at 20 °C. Cells were collected and pellets were resuspended in lysis buffer (50 mM Tris-HCl, pH 8.0, 400 mM NaCl). The cells were disrupted by the high pressure cracker and cell debris was removed by centrifugation (14000 g, 1 h). Glutathione Sepharose 4B agarose (GE Healthcare) was added to the supernatant containing the target proteins. After incubation for 1 h, the mixture was transferred into a disposable column and washed extensively with lysis buffer (5 column volumes). Target proteins in collections were confirmed by SDS-PAGE and purified recombinant proteins were selected for enzyme assays and kinetics determination.

[4] = substrate: O=c1cc(-c2ccc(O)c(O)c2)oc2cc(O)cc(O)c12; experiment: purified protein, by the assay type; set-up: HPLC glucoside product formation by recombinant GST-UGT, 1.5 mM UDP-glucose, Michaelis-Menten fit; details: pH 8.0; 20.0 °C
Protocol: as §1

Row | Protein | Km (purified protein [1]) [µM] | kcat (purified protein [1]) [s⁻¹] | Km (purified protein [2]; 5-O-glucosylation) [µM] | kcat (purified protein [2]; 5-O-glucosylation) [s⁻¹] | Km [3] [µM] | kcat [3] [s⁻¹] | kcat/Km [3] [M⁻¹ s⁻¹] | Km [4] [µM] | kcat [4] [s⁻¹] | kcat/Km [4] [M⁻¹ s⁻¹] | Km (purified protein [2]; 7-O-glucosylation) [µM] | kcat (purified protein [2]; 7-O-glucosylation) [s⁻¹]
1 | B1 | 6.7 ± 0.7 | 0.20 ± 0.01 | 8.9 ± 1.8 | 0.4 ± 0.06 | 5.1 ± 0.6 | 0.06 ± 0.01 | 10000 | 1.5 ± 0.5 | 0.05 ± 0.01 | 30000 |  | 
2 | B2 | 16.8 ± 1.3 | 0.4 ± 0.01 |  |  | 11.9 ± 1.9 | 0.07 |  | 11.6 ± 0.35 | 0.4 ± 0.2 | 40000 | 17.7 ± 1.3 | 0.7 ± 0.02
